Drawing on US20260265390A1 (SHANDONG SIMCERE BIOPHARMACEUTICAL, published 2026), this text covers EC50 for six molecules.

For assay [1], the target named is T1, human GPRC5D, expressed on cells (human, UniProt Q9NZD1 1-345).
T1 construct: whole, on cells; Overexpressed on CHOK1 cells; also called CHOK1-human GPRC5D cells
As to the kind of experiment: FACS, CHOK1-human GPRC5D cells. Here is the method:
(§1) Flp-inCHO-human BCMA cells and CHOK1-human GPRC5D cells were scale-up cultured in T-75 cell culture flask to the logarithmic growth phase, respectively, and the cells were pipetted to obtain a single cell suspension. After the cells were counted and centrifuged, the cell precipitate was resuspended to 2×10⁶ cells per milliliter with a FACS buffer (PBS+2% fetal bovine serum). The suspension was added to a 96-well FACS reaction plate at 50 μl/well. 8 concentrations of the anti-BCMA-GPRC5D-CD3 antibodies or control antibodies were added at 50 μl/well, wherein gradient dilution was performed at a dilution ratio of 5 from a concentration of 100 nM. The cells were incubated at 4° C. for 1 h. The obtained mixture was centrifuged and washed 3 times with a PBS buffer. […] The obtained mixture was centrifuged and washed 3 times with a PBS buffer. 100 μl of the mixture was taken for detection and result analysis by FACS (FACS Canto™, purchased from BD Company). Data analysis was performed by software (FlowJo) to obtain the mean fluorescence intensity (MFI) of the cells. Then, a software (GraphPad Prism8) was used for analysis, data fitting and EC50 calculation.

For assay [2], the target named is T2, human BCMA (B cell maturation antigen), expressed on cells (human, UniProt Q02223 1-184).
T2 construct: whole, on cells; Overexpressed on Flp-in CHO cells; also called Flp-inCHO-human BCMA cells; CD269
T2 sequence (looked up): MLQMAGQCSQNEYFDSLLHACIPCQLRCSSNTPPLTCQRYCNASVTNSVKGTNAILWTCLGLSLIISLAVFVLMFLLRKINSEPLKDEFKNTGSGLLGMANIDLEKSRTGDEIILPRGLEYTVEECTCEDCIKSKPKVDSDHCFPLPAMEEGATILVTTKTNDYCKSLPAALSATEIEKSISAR
As to the kind of experiment: FACS, Flp-inCHO-human BCMA cells. Here is the method:
as §1

The target in assay [3] is T3, monkey CD3, on activated monkey PBMC (monkey).
T3 construct: whole, on cells
As to the kind of experiment: FACS, activated monkey PBMC.

Several values for one entry are separate records, joined by “and”; a condition that tells them apart may be missing. Identical values can stand only once.

T1 sequence (Q9NZD1 whole entry): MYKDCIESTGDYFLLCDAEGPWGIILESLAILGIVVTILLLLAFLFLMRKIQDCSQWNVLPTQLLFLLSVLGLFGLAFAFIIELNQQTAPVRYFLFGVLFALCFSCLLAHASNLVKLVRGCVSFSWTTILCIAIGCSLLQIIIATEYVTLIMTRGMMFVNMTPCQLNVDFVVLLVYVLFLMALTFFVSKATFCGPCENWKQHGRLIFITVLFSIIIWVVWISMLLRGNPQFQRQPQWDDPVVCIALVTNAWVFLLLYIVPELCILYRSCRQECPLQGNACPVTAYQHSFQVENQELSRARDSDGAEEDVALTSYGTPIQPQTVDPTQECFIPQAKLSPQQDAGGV
T3 sequence (Q95LI5 22-198): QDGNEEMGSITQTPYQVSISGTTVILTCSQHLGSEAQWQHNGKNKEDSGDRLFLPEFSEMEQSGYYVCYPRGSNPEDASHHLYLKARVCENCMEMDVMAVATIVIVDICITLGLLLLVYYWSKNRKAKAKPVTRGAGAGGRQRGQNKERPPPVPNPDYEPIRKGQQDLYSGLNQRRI

B1: Tri-65 anti-BCMA-GPRC5D-CD3 trispecific antibody (other)
VHH: EVQLVESGGGLVQPGGSLRLSCAASESISSIHIMAWYRQAPGKQRELVAGIRNDGSTVYVDSVKGRFTISRDNAKNSLYLQMNSLRAEDTAVYYCNADQGFGSYSEWERRSRWGQGTTVTVSS
VH 1: EVQLVQSGAEVKKPGASVKVSCKTSGYIFTNFGITWVRQAPGQRLEWMGENYPRRINTYYNEKFKGRVTITADKSASTAYMELSSLRSEDTAVYYCSRKDIFGLSYALDYWGQGTTVTVSS
VL 1: DIQMTQSPSSLSASVGDRVTITCKASQNVGTNVAWYQHKPGKSPKALIYSASYQYSGVPSRFSGSGSGTDFTLTISSLQPEDVATYICQQYKNYPYTFGGGTKVEIK
VH 2: EVQLVESGGGVVQPGRSLRLSCAASGFTFTDYYMSWVRQAPGKGLEWVAMSRNKAKGHTIEYSSSVKGRFTISRDNSKNTLYLQMNSLRAEDTAVYYCARDTYESYDGYFDVWGQGTTVTVSS
VL 2: DIVMTQSPDSLAVSLGERATINCKSSQSLFNSRSRKNYLAWYQQKPGQTPKLLIYWASIRESGVPDRFSGSGSGTDFTLTISSLQAEDVAVYYCKQSYYLYTFGQGTKLEIK
chain 1: ESKYGPPCPPCPAPEAAGGPSVFLFPPKPKDTLMISRTPEVTCVVVDVSQEDPEVQFNWYVDGVEVHNAKTKPREEQFNSTYRVVSVLTVLHQDWLNGKEYKCKVSNKGLPSSIEKTISKAKGQPREPQVYTLPPSQEEMTKNQVSLWCLVKGFYPSDIAVEWESNGQPENNYKTTPPVLDSDGSFFLYSRLTVDKSRWQEGNVFSCSVMHEALHNHYTQKSLSLSLG
chain 2: ESKYGPPCPPCPAPEAAGGPSVFLFPPKPKDTLMISRTPEVTCVVVDVSQEDPEVQFNWYVDGVEVHNAKTKPREEQFNSTYRVVSVLTVLHQDWLNGKEYKCKVSNKGLPSSIEKTISKAKGQPREPQVYTLPPSQEEMTKNQVSLSCAVKGFYPSDIAVEWESNGQPENNYKTTPPVLDSDGSFFLVSRLTVDKSRWQEGNVFSCSVMHEALHNHYTQKSLSLSLG
notes: Trispecific antibody; Asymmetric (purification method C)
As to B1, the figures for the EC50 in assay [1] and in assay [2] were 1.66 nM and 2.54 nM, respectively.

B2: Tri-38 anti-BCMA-GPRC5D-CD3 trispecific antibody (other)
VHH: EVQLVESGGGLVQPGGSLRLSCSASGFTLDYYMIGWFRQAPGKEREGLSSISPADGSTYYADSVKGRFTISRDSSKNTVYLQMNSLRAEDTAVYYCAAGNEATISWGFGPWEYDYWGQGTMVTVSS
VH 1: EVQLVQSGAEVKKPGSSVKVSCKASGYTFTSYGISWVRQAPGQGLEWMGEIYPRSGNTYYNEKFKGRVTLTADKSTSTAYMELSSLRSEDTAVYYCARGRAYGRNYPMDYWGQGTTVTVSS
VL 1: EIVLTQSPATLSLSPGERATLSCRASQSIGTSIHWYQQKPGQSPRLLIKYASESISGIPARFSGSGSGTDFTLTISSLEPEDFAVYYCQQSNSWPYTFGGGTKVEIK
VH 2: EVQLVESGGGVVQPGRSLRLSCAASGFTFTDYYMSWVRQAPGKGLEWVAMSRNKAKGHTIEYSSSVKGRFTISRDNSKNTLYLQMNSLRAEDTAVYYCARDTYESYDGYFDVWGQGTTVTVSS
VL 2: DIVMTQSPDSLAVSLGERATINCKSSQSLFNSRSRKNYLAWYQQKPGQTPKLLIYWASIRESGVPDRFSGSGSGTDFTLTISSLQAEDVAVYYCKQSYYLYTFGQGTKLEIK
chain 1: EPKSSDKTHTCPPCPAPEAAGGPSVFLFPPKPKDTLMISRTPEVTCVVVDVSHEDPEVKFNWYVDGVEVHNAKTKPREEQYNSTYRVVSVLTVLHQDWLNGKEYKCKVSNKALPAPIEKTISKAKGQPREPQVYTLPPSREEMTKNQVSLWCLVKGFYPSDIAVEWESNGQPENNYKTTPPVLDSDGSFFLYSKLTVDKSRWQQGNVFSCSVMHEALHNHYTQKSLSLSPG
chain 2: EPKSSDKTHTCPPCPAPEAAGGPSVFLFPPKPKDTLMISRTPEVTCVVVDVSHEDPEVKFNWYVDGVEVHNAKTKPREEQYNSTYRVVSVLTVLHQDWLNGKEYKCKVSNKALPAPIEKTISKAKGQPREPQVYTLPPSREEMTKNQVSLSCAVKGFYPSDIAVEWESNGQPENNYKTTPPVLDSDGSFFLVSKLTVDKSRWQQGNVFSCSVMHEALHNHYTQKSLSLSPG
notes: Trispecific antibody; Asymmetric (purification method B)
Consider B2, for which the EC50 in assay [1] amounted to 2.06 nM; in assay [2], 4.43 nM.

B3: Tri-66 anti-BCMA-GPRC5D-CD3 trispecific antibody (other)
VHH: EVQLVESGGGLVQPGGSLRLSCAASESISSIHIMAWYRQAPGKQRELVAGIRNDGSTVYVDSVKGRFTISRDNAKNSLYLQMNSLRAEDTAVYYCNADQGFGSYSEWERRSRWGQGTTVTVSS
VH 1: EVQLVQSGAEVKKPGASVKVSCKTSGYIFTNFGITWVRQAPGQRLEWMGENYPRRINTYYNEKFKGRVTITADKSASTAYMELSSLRSEDTAVYYCSRKDIFGLSYALDYWGQGTTVTVSS
VL 1: DIQMTQSPSSLSASVGDRVTITCKASQNVGTNVAWYQHKPGKSPKALIYSASYQYSGVPSRFSGSGSGTDFTLTISSLQPEDVATYICQQYKNYPYTFGGGTKVEIK
VH 2: EVQLVESGGGVVQPGRSLRLSCAASGFTFTDYYMSWVRQAPGKGLEWVAMSRNKAKGHTIEYSSSVKGRFTISRDNSKNTLYLQMNSLRAEDTAVYYCARDTYESYDGYFDVWGQGTTVTVSS
VL 2: DIVMTQSPDSLAVSLGERATINCKSSQSLFNSRSRKNYLAWYQQKPGQTPKLLIYWASIRESGVPDRFSGSGSGTDFTLTISSLQAEDVAVYYCKQSYYLYTFGQGTKLEIK
chain 1: ESKYGPPCPPCPAPEAAGGPSVFLFPPKPKDTLMISRTPEVTCVVVDVSQEDPEVQFNWYVDGVEVHNAKTKPREEQFNSTYRVVSVLTVLHQDWLNGKEYKCKVSNKGLPSSIEKTISKAKGQPREPQVYTLPPSQEEMTKNQVSLWCLVKGFYPSDIAVEWESNGQPENNYKTTPPVLDSDGSFFLYSRLTVDKSRWQEGNVFSCSVMHEALHNHYTQKSLSLSLG
chain 2: ESKYGPPCPPCPAPEAAGGPSVFLFPPKPKDTLMISRTPEVTCVVVDVSQEDPEVQFNWYVDGVEVHNAKTKPREEQFNSTYRVVSVLTVLHQDWLNGKEYKCKVSNKGLPSSIEKTISKAKGQPREPQVYTLPPSQEEMTKNQVSLSCAVKGFYPSDIAVEWESNGQPENNYKTTPPVLDSDGSFFLVSRLTVDKSRWQEGNVFSCSVMHEALHNHYTQKSLSLSLG
notes: as for B1
For B3, the results for the concentration for a half-maximal effect (EC50) in assay [1] and in assay [2] were 1.53 nM and 1.09 nM, respectively.

B4: antiFITC×CD3-Hab01 (negative control antibody, prepared internally) (bispecific antibody, human IgG4 S228P, kappa, F234A L235A)
heavy: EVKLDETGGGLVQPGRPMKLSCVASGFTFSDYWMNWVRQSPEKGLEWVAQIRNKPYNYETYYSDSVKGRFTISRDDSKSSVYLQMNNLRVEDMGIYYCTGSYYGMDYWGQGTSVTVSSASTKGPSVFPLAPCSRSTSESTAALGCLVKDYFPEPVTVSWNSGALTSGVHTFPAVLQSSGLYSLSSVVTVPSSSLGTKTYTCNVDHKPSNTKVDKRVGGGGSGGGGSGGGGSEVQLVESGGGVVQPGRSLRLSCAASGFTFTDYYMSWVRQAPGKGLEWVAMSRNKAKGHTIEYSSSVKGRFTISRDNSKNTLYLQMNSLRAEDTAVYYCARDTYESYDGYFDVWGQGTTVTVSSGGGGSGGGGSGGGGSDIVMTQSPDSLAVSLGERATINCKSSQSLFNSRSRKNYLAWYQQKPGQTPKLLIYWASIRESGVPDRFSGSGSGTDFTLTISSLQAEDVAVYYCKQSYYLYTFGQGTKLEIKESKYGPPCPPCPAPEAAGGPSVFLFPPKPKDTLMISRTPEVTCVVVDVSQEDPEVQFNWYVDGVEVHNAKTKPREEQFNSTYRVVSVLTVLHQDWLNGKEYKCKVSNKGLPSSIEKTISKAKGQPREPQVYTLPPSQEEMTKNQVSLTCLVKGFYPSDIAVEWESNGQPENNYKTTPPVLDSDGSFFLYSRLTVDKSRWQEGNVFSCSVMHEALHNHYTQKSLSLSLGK
light: DVVMTQTPLSLPVSLGDQASISCRSSQSLVHSNGNTYLRWYLQKPGQSPKVLIYKVSNRFSGVPDRFSGSGSGTDFTLKISRVEAEDLGVYFCSQSTHVPWTFGGGTKLEIKRTVAAPSVFIFPPSDEQLKSGTASVVCLLNNFYPREAKVQWKVDNALQSGNSQESVTEQDSKDSTYSLSSTLTLSKADYEKHKVYACEVTHQGLSSPVTKSFNRGEC
notes: Negative control for the tumor antigens
As to B4, the EC50 in assay [3] was 15.2 nM and 12.4 nM.

B5: JNJ7564 (bispecific antibody targeting GPRC5D and CD3, Johnson & Johnson, WO 2019220368 A1) (bispecific antibody, human IgG4 S228P, kappa, lambda, F234A L235A)
heavy 1: not shown
light 1: DIQMTQSPSSLSASVGDRVTITCKASQNVATHVGWYQQKPGKAPKRLIYSASYRYSGVPSRFSGSGSGTEFTLTISNLQPEDFATYYCQQYNRYPYTFGQGTKLEIKRTVAAPSVFIFPPSDEQLKSGTASVVCLLNNFYPREAKVQWKVDNALQSGNSQESVTEQDSKDSTYSLSSTLTLSKADYEKHKVYACEVTHQGLSSPVTKSFNRGEC
heavy 2: EVQLVESGGGLVQPGGSLRLSCAASGFTFNTYAMNWVRQAPGKGLEWVARIRSKYNNYATYYAASVKGRFTISRDDSKNSLYLQMNSLKTEDTAVYYCARHGNFGNSYVSWFAYWGQGTLVTVSSASTKGPSVFPLAPCSRSTSESTAALGCLVKDYFPEPVTVSWNSGALTSGVHTFPAVLQSSGLYSLSSVVTVPSSSLGTKTYTCNVDHKPSNTKVDKRVESKYGPPCPPCPAPEAAGGPSVFLFPPKPKDTLMISRTPEVTCVVVDVSQEDPEVQFNWYVDGVEVHNAKTKPREEQFNSTYRVVSVLTVLHQDWLNGKEYKCKVSNKGLPSSIEKTISKAKGQPREPQVYTLPPSQEEMTKNQVSLTCLVKGFYPSDIAVEWESNGQPENNYKTTPPVLDSDGSFLLYSKLTVDKSRWQEGNVFSCSVMHEALHNHYTQKSLSLSLGK
light 2: QTVVTQEPSLTVSPGGTVTLTCRSSTGAVTTSNYANWVQQKPGQAPRGLIGGTNKRAPGTPARFSGSLLGGKAALTLSGVQPEDEAEYYCALWYSNLWVFGGGTKLTVLGQPKAAPSVTLFPPSSEELQANKATLVCLISDFYPGAVTVAWKADSSPVKAGVETTTPSKQSNNKYAASSYLSLTPEQWKSHRSYSCQVTHEGSTVEKTVAPTECS
notes: Positive control, made by reduction and reoxidation of the two monospecific antibodies
Regarding B5, the EC50 in assay [3] was 5.79 nM and 5.72 nM.

B6: REGN5459 (bispecific antibody targeting BCMA and CD3, Regeneron, WO 2020018820 A1) (bispecific antibody, human IgG4 S228P, kappa)
heavy 1: EVQLVESGGGLVQPGGSLRLSCAASGFTFSNFWMTWVRQAPGKGLEWVANMNQDGSEKYYVDSVKGRFTISRDNAKSSLYLQMNSLRAEDTAVYYCARDREYCISTSCYDDFDYWGQGTLVTVSSASTKGPSVFPLAPCSRSTSESTAALGCLVKDYFPEPVTVSWNSGALTSGVHTFPAVLQSSGLYSLSSVVTVPSSSLGTKTYTCNVDHKPSNTKVDKRVESKYGPPCPPCPAPPVAGPSVFLFPPKPKDTLMISRTPEVTCVVVDVSQEDPEVQFNWYVDGVEVHNAKTKPREEQFNSTYRVVSVLTVLHQDWLNGKEYKCKVSNKGLPSSIEKTISKAKGQPREPQVYTLPPSQEEMTKNQVSLTCLVKGFYPSDIAVEWESNGQPENNYKTTPPVLDSDGSFFLYSRLTVDKSRWQEGNVFSCSVMHEALHNHYTQKSLSLSLGK
heavy 2: EVQLVESGGGLVQPGRSLRLSCAASGFTFDDYSMHWVRQAPGKGLEWVSGISWNSGSIGYADSVKGRFTISRDNAKNSLYLQMNSLRAEDTALYYCAKYGSGYGKFYYYGMDVWGQGTTVTVSSASTKGPSVFPLAPCSRSTSESTAALGCLVKDYFPEPVTVSWNSGALTSGVHTFPAVLQSSGLYSLSSVVTVPSSSLGTKTYTCNVDHKPSNTKVDKRVESKYGPPCPPCPAPPVAGPSVFLFPPKPKDTLMISRTPEVTCVVVDVSQEDPEVQFNWYVDGVEVHNAKTKPREEQFNSTYRVVSVLTVLHQDWLNGKEYKCKVSNKGLPSSIEKTISKAKGQPREPQVYTLPPSQEEMTKNQVSLTCLVKGFYPSDIAVEWESNGQPENNYKTTPPVLDSDGSFFLYSRLTVDKSRWQEGNVFSCSVMHEALHNRFTQKSLSLSLGK
light: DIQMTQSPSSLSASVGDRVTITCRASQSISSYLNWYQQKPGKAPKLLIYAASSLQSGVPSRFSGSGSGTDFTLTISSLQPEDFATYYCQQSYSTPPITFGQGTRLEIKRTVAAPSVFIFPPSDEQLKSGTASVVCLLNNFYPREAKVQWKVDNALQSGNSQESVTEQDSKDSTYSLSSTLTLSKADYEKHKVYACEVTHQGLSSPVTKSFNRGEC
notes: Positive control, expressed in Expi293F by the applicants; also called RGEN5459
B6 had an EC50 in assay [3] of 161 nM.
